Target: Calmodulin (Bos taurus, UniProt P62157)
Experiment: dansyl-calmodulin fluorescence titration

Kd [nM] | Binder
790 | RAYLLVGGLWTAISKALFAEF (dansyl-calmodulin, Ca2+) [Aquaporin 6 N-terminal peptide (Nter) N-terminal calmodulin binding site, 21-aa peptide]
1780 | WASMLACRLWKAISRALFAEF (dansyl-calmodulin, Ca2+) [Aquaporin 6 N-terminal peptide (h6 Nter) N-terminal calmodulin binding site, 21-aa peptide]
